Here are results for nine molecules from patent US20240158799, “[…] THAT […] BIND TO A SARS-COV-2 VIRUS NUCLEOCAPSID PROTEIN” (IQ SCIENCE LIMITED, published 2024).

For orientation: Kd means a measure of binding affinity in units of concentration. Higher therefore signals lower affinity.

Sequences and labels used below:
B1: N11 (ssDNA)
DNA: TAACCACATAACCGCAAGACGACGCGATACAAAACACTACTAATCTCTCGTCGCACTAGTATTGTGCTACTCTCCTCGT
B2: N06 (ssDNA)
DNA: TAACCACATAACCGCAAGATCCCGATAGACCCGCGTCTCATGTACCTTACATGCTACGATATTGTGCTACTCTCCTCGT
B3: N08 (ssDNA)
DNA: TAACCACATAACCGCAAGACCACACGCACGAAAACAATTGACATGAAATTTACGGCTCTTATTGTGCTACTCTCCTCGT
B4: SS10 (ssDNA)
DNA: TAACCACATAACCGCAAGACGCACGCAAAACTTTCAGTAATCCTAAGATGCCATGTTACTATTGTGCTACTCTCCTCGT
B5: SS18 (ssDNA)
DNA: TAACCACATAACCGCAAGACCAGCAGAAAACTCAACATAAGCAGCAGTTCGGGCGCTACTATTGTGCTACTCTCCTCGT
B6: SS20 (ssDNA)
DNA: TAACCACATAACCGCAAGACGAACACCGATGCCGCGCACAATCGTGTAAACGGATGTCCTATTGTGCTACTCTCCTCGT
B7: SS48 (ssDNA)
DNA: TAACCACATAACCGCAAGACGACGACACAAAAGCATTTCGGCAATCCGACAGTGGTCCATATTGTGCTACTCTCCTCGT
B8: SS04 (ssDNA)
DNA: TAACCACATAACCGCAAGACGAACGAACCATATAACGCGTAGTAACATCCAAGGCGCCCTATTGTGCTACTCTCCTCGT
B9: SS12 (ssDNA)
DNA: TAACCACATAACCGCAAGACGATGGCCGCAACCGAGAAACTATGACGATGGATCACGGCTATTGTGCTACTCTCCTCGT

One series addresses SARS-CoV-2 nucleocapsid protein (SARS-CoV-2, UniProt P0DTC9 P0DTC9:1-419).
With B1, binding was characterised by a dissociation constant (Kd) of 29.6 nM. Still for that read-out and setting: the value for B2 was 25.1 nM; that for B3 was 18.7 nM.

Another series deals with SARS-CoV-2 spike protein (S1/S2 complex) (SARS-CoV-2, UniProt P0DTC2 P0DTC2:14-1213).
Regarding B4, the binding result is “binds”.

Turning to B5, the binding result is listed as “binds”.

With B6, the binding result was “binds”.

As for B7, the binding result is “binds”. On the same count and under the same terms, the value for B8 was “binds”; that for B9 was “binds”.
